Experimental data reported in patent US20260275317A1, “CHIMERIC ENDOLYSINS WITH ACTIVITY AGAINST STREPTOCOCCI AND STAPHYLOCOCCI” (UNIVERSITEIT GENT, priority 2023, published 2026).

How the values were obtained:
[1] = test system: S. uberis-infected murine mammary glands; test: Mouse model of S. uberis mastitis: inflammatory protein profiling in mammary gland lysates; type: in vivo; details: 30 μg cloxacillin stand-alone
Source text: (§1) All experimental procedures on mice were executed at the Faculty of Veterinary Medicine of Ghent University (Merelbeke, Belgium). Breeding pairs of female and male CD-1 mice (Envigo, The Netherlands) were allowed to mate during two weeks, after which the dams gave birth approximately seven days later. Twelve days postpartum, the lactating dams were intraductally inoculated with a blunted 32 gauge pediatric needle in the fourth inguinal mammary gland pair after properly disinfecting the teat. These intraductal inoculations were always performed under general gas anesthesia, using a mixture of medical oxygen and isoflurane at 2.5-3.0% for induction and 1.5-2.0% for maintenance. The long-acting analgesic buprenorphine was administered at 10 μg/kg intraperitoneally for post-surgical pain relief. An inoculum dose of approximately […] colony forming units (CFU) of a clinical bovine mastitis S. uberis isolate in 100 μl dPBS was intraductally inoculated at 1 h post-weaning and mice were grouped ad random at 12 h post-infection (p.i.) and placed under gas anesthesia a second time to administer intramammary treatment. […] The treated mice were sedated 16 h p.i. (i.e., 4 h post-treatment). The therapeutics were diluted in dPBS to their desired concentration, mixed by pipetting and kept on melting ice until they were administered intraductally within 1 h after preparation. Inoculum preparation was done by growing S. uberis to stationary phase in brain heart infusion (BHI), after which cells were washed with dPBS and diluted in dPBS to the desired concentration based on OD600 measurements.
The host response to the experimental mammary gland infection and subsequent therapy was investigated by determining the levels of inflammatory cytokines and chemokines in mammary gland lysates, obtained by mixing the homogenates with 300 μL caspase lysis buffer (CLB) containing protease inhibitors, and subsequent centrifugation (12,000 g; 4° C.; 20 min). Protein concentration of these lysates was determined using the Bradford protein assay. Standardization of the mammary gland lysates was done by dilution in CLB to assure equal protein concentrations. Levels of the selected inflammatory mediators TNF-α, MCP-1, M-& G-CSF as well as IL-1α, -1β, -6, & -8, were determined on mammary gland lysates using a ProcartaPlex Immunoassay. Quantification of CHI3L1 and LCN2 was performed by ELISA.

[2] = test system: S. uberis-infected murine mammary glands; test: Mouse model of S. uberis mastitis: bacterial load and clinical symptoms; type: in vivo; details: 30 μg cloxacillin stand-alone
Source text: as §1, with “Inoculum preparation was done by growing S. uberis to stationary phase in brain heart infusion (BHI), after which cells were washed with dPBS and diluted in dPBS to the desired concentration based on OD600 measurements.” left out

[3] = test system: S. uberis-infected murine mammary glands; test: Mouse model of S. uberis mastitis: Ly6G immunohistochemistry (neutrophil influx); type: in vivo; details: 30 μg cloxacillin stand-alone
Source text: as §1, with “Inoculum preparation was done by growing S. uberis to stationary phase in brain heart infusion (BHI), after which cells were washed with dPBS and diluted in dPBS to the desired concentration based on OD600 measurements.” left out

[4] = test system: S. uberis in mastitic raw cow's milk; test: Challenge of mastitic raw cow's milk; type: cell-based, Streptococcus uberis; details: milk of 4 cows, 8 h; 0.5 μM NC5, 50 μg/mL cloxacillin or both
Procedure: Raw cow's milk from S. uberis infected dairy cows was supplied by the milk control center of Flanders (MCC Vlaanderen). Upon arrival, the milk was serially diluted and plated on BHI agar to determine the bacterial load. Only milk with >10^5 […] CFU/mL S. uberis was included as a selection criterium. If needed, the raw milk was incubated during 8 h at 37° C. to artificially increase the initial bacterial load. […] Upon incubation at 37° C., every 2 h, 20 μL was transferred from each well to 180 μL dPBS, serially diluted and plated on BHI agar. Plates were incubated overnight and CFU/mL were calculated the next day. Undiluted, mastitic milk was always pipetted with ClipTip Pipette Tips (Westburg, The Netherlands) due to high viscosity. Mastitis isolates were confirmed as S. uberis by MALDI-TOF MS biotyping.

[5] = test system: S. aureus; test: TRA and TKA against S. aureus mastitis isolates; type: cell-based, Staphylococcus aureus; details: S. aureus (sub)clinical isolates
Procedure: Concerning the time killing assay, an overnight bacterial culture was diluted 1:10 for S. uberis, S. agalactiae-& dysgalactiae or 1:100 for S. aureus in PBS or UHT-pasteurized whole cow's milk. A volume of 10 μL thereof was combined with an equal amount of chimeric endolysin in PBS (or only PBS as negative control) in triplicate and incubated in a covered 96-well microtiter plate at 37° C. for 2 h. The dose was low (i.e. 0.25 μM), but this was chosen to differentiate between less and better performing variants, consequently allowing a ranking. Finally, these fractions were serially diluted 1:10 in PBS. 5 μL of each fraction was spotted on TSA or BHI-agar and incubated overnight at 37° C. The following day, colony forming units (CFU) were counted and converted to CFU/mL to calculate logarithmic reductions in comparison with the negative control. The relative scores were calculated by dividing the observed logarithmic reduction for each endolysin by the maximal reduction observed for that specific condition and strain. Next, this value was divided by the number of conditions and strains tested (i.e., 8=4 bacterial strains×2 conditions (PBS/UHT-milk)). […] Next, the OD600 was measured using a Tecan infinite 200 PRO plate reader (Tecan, Switzerland) every 15 seconds at 37° C., shaking the 96-well plate between each measurement. […]

[6] = test system: stationary phase S. uberis; test: Turbidity reduction assay (TRA), S. uberis; type: cell-based, Streptococcus uberis; details: 0.3 μM
Procedure: (§2) Concerning the time killing assay, an overnight bacterial culture was diluted 1:10 for S. uberis, S. agalactiae-& dysgalactiae or 1:100 for S. aureus in PBS or UHT-pasteurized whole cow's milk. A volume of 10 μL thereof was combined with an equal amount of chimeric endolysin in PBS (or only PBS as negative control) in triplicate and incubated in a covered 96-well microtiter plate at 37° C. for 2 h. The dose was low (i.e. 0.25 μM), but this was chosen to differentiate between less and better performing variants, consequently allowing a ranking. Finally, these fractions were serially diluted 1:10 in PBS. 5 μL of each fraction was spotted on TSA or BHI-agar and incubated overnight at 37° C. The following day, colony forming units (CFU) were counted and converted to CFU/mL to calculate logarithmic reductions in comparison with the negative control. The relative scores were calculated by dividing the observed logarithmic reduction for each endolysin by the maximal reduction observed for that specific condition and strain. Next, this value was divided by the number of conditions and strains tested (i.e., 8=4 bacterial strains×2 conditions (PBS/UHT-milk)). As such, the best performing candidate in each individual assay received a score of 0.125 (=(1/1)/8). […] Turbidity reduction assays were performed by combining 100 μL of overnight grown bacterial cells with an equal volume of purified enzyme at the desired concentration. Bacterial cells were washed with PBS and resuspended in a 1:1 ratio with enzyme to an OD600 of approximately 1.0. Next, the OD600 was measured using a Tecan infinite 200 PRO plate reader (Tecan, Switzerland) every 15 seconds at 37° C., shaking the 96-well plate between each measurement.
(§3) Time killing and turbidity reduction assays were performed as previously described in 1.3.1.

[7] = test system: S. uberis, S. aureus, S. agalactiae and S. dysgalactiae; test: 2 h time killing assay in PBS and UHT-milk, relative in vitro scoring; type: cell-based; details: 0.25 μM
Procedure: as §2, with “The dose was low (i.e. 0.25 μM), but this was chosen to differentiate between less and better performing variants, consequently allowing a ranking.” left out
Stationary phase S. uberis 0140J or S. aureus N305 and one randomly chosen clinical isolate of S. uberis, S. aureus, S. agalactiae and S. dysgalactiae were challenged with a final concentration of 0.25 μM endolysin in a 2 h time killing assay (TKA) in both phosphate buffered saline (PBS) and ultra-high temperature pasteurized whole cow's milk (UHT-milk).

[8] = test system: stationary phase S. uberis; test: Time killing assay (TKA), S. uberis; type: cell-based, Streptococcus uberis; details: 0.3 μM; for ΔLog10 (CFU/mL): 1 h
Procedure: as §2, with “A volume of 10 μL thereof was combined with an equal amount of chimeric endolysin in PBS (or only PBS as negative control) in triplicate and incubated in a covered 96-well microtiter plate at 37° C. for 2 h. The dose was low (i.e. 0.25 μM), but this was chosen to differentiate between less and better performing variants, consequently allowing a ranking.” left out
as §3
Time killing assays were performed as previously described in 1.3.1.

[9] = Clinical S. uberis 1 (Unknown ST and GCC)
[10] = Clinical S. uberis 2 (Unknown ST, GCC 5)
[11] = Clinical S. uberis 3 (Unknown ST, GCC 5)
[12] = Clinical S. uberis 4 (ST 815, GCC 143)
[13] = Clinical S. uberis 5 (ST 944, GCC 5)
[14] = Subclinical S. uberis 1 (ST 808, GCC 143)
[15] = Subclinical S. uberis 2 (Unknown ST and GCC)
[16] = Subclinical S. uberis 3 (Unknown ST, GCC 5)
[17] = Subclinical S. uberis 4 (Unknown ST and GCC)

## Cc1onc(-c2ccccc2Cl)c1C(=O)N[C@@H]1C(=O)N2[C@@H]1SC(C)(C)[C@@H]2C(=O)O [cloxacillin]
[1]
  CHI3L1 reduction versus placebo: 1.4 fold
  IL-1α decrease versus placebo: 1.2 fold
  IL-1β decrease versus placebo: 1.3 fold
  IL-6 decrease versus placebo: 2.0 fold
  LCN2 reduction versus placebo: 1.2 fold
  MCP-1 reduction versus placebo: 1.5 fold
  MIP-2 decrease versus placebo: 1.6 fold
  TNF-α decrease versus placebo: 1.4 fold
[2]
  decrease in CFU numbers versus placebo: 630 fold
[2]; intramammary, 4 h post-treatment, all mice
  decrease of bacterial load versus placebo: 55 fold
[3]
  reduced neutrophil influx (Ly6G-positive staining) versus placebo: 1.8 fold
[4]
  log10 reduction of S. uberis versus PBS control: significant (p<0.05) reductions in all 4 mastitic milk samples at 8 h

B1: NC2: chimeric endolysin SEQ ID NO: 14; CPP + PlySs2 CHAP + PlySs2 SH3_5 + PlySs9 amidase_3 (protein)
chain: MRRRRRRRRGATTVNEALNNVRAQVGSGVSVGNGECYALASWYERMISPDATVGLGAGVGWVSGAIGDTISAKNIGSSYNWQANGWTVSTSGPFKAGQIVTLGATPGNPYGHVVIVEAVDGDRLTILEQNYGGKRYPVRNYYSAASYRQQVVHYITPPGTVAQSAPNLAGAGSRSYRETGTMTVTVDALNVRRAPNTSGEIVAVYKRGESFDYDTVIIDVNGYVWVSYIGGSGKRNYVATGATKDGKRFGNAWGTFKGSGKHLVICGHGQGRTGYDPGAVNAKLGITEAGKVRELSKLMSKYSGQQIDFITEQNVYDYRSITSIGKGYDSITELHFNAFNGSAKGTEVLIQSSLEADKEDMAILSLLSRYFQNRGIKKVDWLYNANQAASRGYTYRLVEIAFIDNEQDMAIFENKKEDIAKGLVSAITGVEVKTIVPSPPSSTVGSSGTPSKSIYLVGDSLRVLPHATHYQTGQKIANWVKGRTYKILQVKNVHQSNSKRAYLLDGIKSWVLEQDVEGTTKGHSKYHHHHHH
[5]
  enzymatic (ΔOD600) and killing (Δ log10) activity, NC2 pairwise versus NC5: significantly (p<0.001) improved enzymatic (i.e., ΔOD600) and killing (i.e., Δ log10) activity
[6]; [9]
  lysis speed (ΔOD600/min)/μM: 0.03 (ΔOD600/min)/μM
[6]; Clinical S. uberis 1 (Unknown ST and GCC), 1 h
  ΔOD600: 0.32
[6]; [10]
  lysis speed (ΔOD600/min)/μM: 0.08 (ΔOD600/min)/μM
[6]; Clinical S. uberis 2 (Unknown ST, GCC 5), 1 h
  ΔOD600: 0.54
[6]; [11]
  lysis speed (ΔOD600/min)/μM: 0.22 (ΔOD600/min)/μM
[6]; Clinical S. uberis 3 (Unknown ST, GCC 5), 1 h
  ΔOD600: 0.72
[6]; [12]
  lysis speed (ΔOD600/min)/μM: 0.04 (ΔOD600/min)/μM
[6]; Clinical S. uberis 4 (ST 815, GCC 143), 1 h
  ΔOD600: 0.30
[6]; [13]
  lysis speed (ΔOD600/min)/μM: 0.12 (ΔOD600/min)/μM
[6]; Clinical S. uberis 5 (ST 944, GCC 5), 1 h
  ΔOD600: 0.63
[6]; S. uberis 0140J
  ΔOD600: 0.53±0.01
[6]; [14]
  lysis speed (ΔOD600/min)/μM: 0.18 (ΔOD600/min)/μM
[6]; Subclinical S. uberis 1 (ST 808, GCC 143), 1 h
  ΔOD600: 0.65
[6]; [15]
  lysis speed (ΔOD600/min)/μM: 0.06 (ΔOD600/min)/μM
[6]; Subclinical S. uberis 2 (Unknown ST and GCC), 1 h
  ΔOD600: 0.59
[6]; [16]
  lysis speed (ΔOD600/min)/μM: 0.18 (ΔOD600/min)/μM
[6]; Subclinical S. uberis 3 (Unknown ST, GCC 5), 1 h
  ΔOD600: 0.67
[6]; [17]
  lysis speed (ΔOD600/min)/μM: 0.15 (ΔOD600/min)/μM
[6]; Subclinical S. uberis 4 (Unknown ST and GCC), 1 h
  ΔOD600: 0.66
[7]
  ranking by cumulative relative in vitro score: overall best performing candidates
[8]; [9]
  ΔLog10 (CFU/mL): 0.00 Log10 (CFU/mL)
[8]; [10]
  ΔLog10 (CFU/mL): 4.16 Log10 (CFU/mL)
[8]; [11]
  ΔLog10 (CFU/mL): 1.66 Log10 (CFU/mL)
[8]; [12]
  ΔLog10 (CFU/mL): 0.01 Log10 (CFU/mL)
[8]; [13]
  ΔLog10 (CFU/mL): 0.86 Log10 (CFU/mL)
[8]; S. uberis 0140J
  Δ log10: 0.90±0.03 log10
[8]; [14]
  ΔLog10 (CFU/mL): 2.84 Log10 (CFU/mL)
[8]; [15]
  ΔLog10 (CFU/mL): 1.02 Log10 (CFU/mL)
[8]; [16]
  ΔLog10 (CFU/mL): 1.31 Log10 (CFU/mL)
[8]; [17]
  ΔLog10 (CFU/mL): 2.84 Log10 (CFU/mL)
